Results taken from paper PMC10743661, “The Link of mRNA and rRNA Transcription by PUF60/FIR through TFIIH/P62 as a Novel Therapeutic Target for Cancer” (International Journal of Molecular Sciences, 2023).

How the values were obtained:
[1] = target: T1, FUBP1-interacting repressor (FIR) (human, UniProt Q9UHX1-2 1-542); experiment: ITC; second step of two-step fit, 30°C, pH 7.2
T1 chain: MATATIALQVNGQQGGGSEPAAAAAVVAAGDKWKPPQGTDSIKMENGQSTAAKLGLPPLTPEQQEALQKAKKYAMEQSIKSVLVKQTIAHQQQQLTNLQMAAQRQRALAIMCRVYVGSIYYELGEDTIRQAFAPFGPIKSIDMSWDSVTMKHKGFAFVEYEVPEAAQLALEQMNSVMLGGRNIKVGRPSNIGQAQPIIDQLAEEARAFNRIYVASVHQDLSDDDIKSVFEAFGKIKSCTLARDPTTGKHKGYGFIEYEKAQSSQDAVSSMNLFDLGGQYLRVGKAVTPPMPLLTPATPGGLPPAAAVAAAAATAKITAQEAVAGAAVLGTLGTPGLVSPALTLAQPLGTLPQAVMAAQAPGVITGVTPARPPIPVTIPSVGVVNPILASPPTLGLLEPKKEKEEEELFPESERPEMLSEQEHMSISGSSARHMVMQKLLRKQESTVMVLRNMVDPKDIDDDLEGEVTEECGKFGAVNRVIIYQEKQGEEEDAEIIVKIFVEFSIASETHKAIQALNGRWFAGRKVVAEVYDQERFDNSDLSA

[2] = target: T2, FUBP1-interacting repressor (FIR) (human, UniProt Q9UHX1-2 1-542); experiment: ITC; MicroCal VP-ITC, 30 °C, 50 mM phosphate buffer pH 7.2; cell: 4 μM wild FIR or 14.5 μM FIR∆exon2; syringe: 44 or 145 μM TFIIH p62 PH domain; 25 injections of 10 μL; conditions: both partners purified
T2 construct: also called FIR wild; wild FIR
T2 sequence (looked up): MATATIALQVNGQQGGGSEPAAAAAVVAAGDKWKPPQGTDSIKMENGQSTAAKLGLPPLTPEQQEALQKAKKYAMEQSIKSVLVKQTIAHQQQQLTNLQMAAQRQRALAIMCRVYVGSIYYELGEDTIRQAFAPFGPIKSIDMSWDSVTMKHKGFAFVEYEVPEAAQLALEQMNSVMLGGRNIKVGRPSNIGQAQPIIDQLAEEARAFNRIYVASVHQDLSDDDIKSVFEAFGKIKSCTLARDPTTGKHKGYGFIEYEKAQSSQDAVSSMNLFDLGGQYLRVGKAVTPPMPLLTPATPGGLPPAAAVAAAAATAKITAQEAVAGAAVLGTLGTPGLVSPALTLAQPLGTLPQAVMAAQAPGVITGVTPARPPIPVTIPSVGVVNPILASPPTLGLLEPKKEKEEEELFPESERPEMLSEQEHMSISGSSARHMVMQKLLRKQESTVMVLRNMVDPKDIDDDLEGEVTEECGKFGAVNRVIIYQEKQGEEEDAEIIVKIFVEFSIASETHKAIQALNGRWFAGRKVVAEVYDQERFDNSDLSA

[3] = target: T1, FUBP1-interacting repressor (FIR); experiment: ITC; first step of two-step fit, 30°C, pH 7.2

Ka [1]: 2.3e+06 M⁻¹
Ka [2]: 2.34e+07 M⁻¹
Ka [3]: 1.9e+07 M⁻¹
B1: TFIIH p62 PH domain (domain or fragment, UniProt P32780 1-108, looked up)
chain: MATSSEEVLLIVKKVRQKKQDGALYLMAERIAWAPEGKDRFTISHMYADIKCQKISPEGKAKIQLQLVLHAGDTTNFHFSNESTAVKERDAVKDLLQQLLPKFKRKAN
notes: pleckstrin homology (PH) domain of the P62 subunit of transcription factor IIH; also called P62 of TFIIH; P62 subunit of TFIIH
